Our source for the binding result and EC50 values is patent US20230235034A1 (University of Pennsylvania, published 2023).

For one test, the target named is K18 fragment of tau (UniProt P10636-8 244-372). The test is described as follows: western blot of tau fragments. The procedure: (§1) T40 tau monomer or AD-tau were chemically and thermally denatured by 1:10 dilution in 8M guanidine hydrochloride and heating at 100° C. for 15 min, and non-denatured controls were diluted in Tris-buffered saline (TBS) at RT. Denatured or non-denatured tau was then diluted 1:50 in TBS and applied to 0.2 μm nitrocellulose membrane using a vacuum apparatus. For western blots, tau isoforms and fragments were diluted in SDS sample buffer, heated 10 min at 100° C., run on 12.5% SDS-PAGE gels and transferred to 0.2 μm nitrocellulose membrane. […] Infrared dye labeled secondary antibodies (LiCor) were used to detect primary antibody binding, with analysis on a LiCor scanner (LiCor).
For orientation: In western blotting, separated proteins are transferred to a membrane and probed.

A further test deals with ΔK18-P fragment of tau (Homo sapiens (Human), UniProt P10636 1-758). The test can be described thus: western blot of tau fragments. The procedure: as §1
The target in test [1] is T1, AD-tau (Alzheimer's brain derived tau) (human, UniProt P10636-8 2-441, limits assumed).
T1 construct: Misfolded fibrillar tau from brain extract, not a single defined polypeptide; also called human AD-brain-derived pathological tau; AD tau PHF
The test is described as follows: sandwich ELISA, tau antigen captured by K9JA. The method, then:
(§2) Blocking was performed with BlockAce solution (Abd Serotec) at 4° C. overnight. […] Plates were washed with PBST and HRP-conjugated anti-mouse (Jackson Immunoresearch) secondary antibodies were applied for 2 h at 22° C. Plates were washed and tetramethylbenzidine peroxidase substrate (KPL laboratories) was added to wells to provide a colorimetric readout, quenched with 10% phosphoric acid and then absorbance measured at 450 nm (Molecular Devices SpectraMax).
(§3) Towards the goal of generating conformation-selective tau mAbs, mice were inoculated with human AD brain-derived extracts enriched in insoluble tau (AD-tau). Hybridoma clones generated from immunized mice were screened by sandwich ELISA to simultaneously assess binding of antibodies to tau monomer, AD-tau seeded recombinant tau preformed fibrils (AD-P1 PFFs), and AD-tau. […] Clones that bound AD-tau and AD-P1 PFFs with greater apparent affinity than tau monomer were prioritized and subsequently sub-cloned by limiting dilutions to monoclonal populations.
(In general: ELISA stands for enzyme-linked immunosorbent assay.)

Test [2] deals with T2, AD-P1 PFFs (AD-tau seeded recombinant tau preformed fibrils) (human, UniProt P10636 2-758).
T2 construct: Fibrils made from 36 uM T40 tau (2N4R) and 4 uM AD-tau seeds; also called T40 AD-P1 PFFs
The test can be described thus: sandwich ELISA, tau antigen captured by K9JA. The procedure:
as §2, §3

The target of test [3] is T3, T40 tau monomer (full length tau protein, 2N4R isoform) (human, UniProt P10636 2-758).
T3 construct: no sentence says so outright; also called T40 monomer; human T40 tau
The test can be described thus: sandwich ELISA, tau antigen captured by K9JA. The method, then:
as §2, §3

Sequence of ΔK18-P fragment of tau (P10636 other isoform, or with tags, fused parts or gaps mutant): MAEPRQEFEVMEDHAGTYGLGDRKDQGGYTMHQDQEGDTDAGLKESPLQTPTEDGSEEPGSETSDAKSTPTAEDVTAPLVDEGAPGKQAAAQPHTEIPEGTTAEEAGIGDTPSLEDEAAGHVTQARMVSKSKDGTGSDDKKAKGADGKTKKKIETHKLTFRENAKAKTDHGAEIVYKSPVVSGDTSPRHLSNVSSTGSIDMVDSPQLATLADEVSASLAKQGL
T3 sequence (P10636 other isoform, or with tags, fused parts or gaps limits assumed): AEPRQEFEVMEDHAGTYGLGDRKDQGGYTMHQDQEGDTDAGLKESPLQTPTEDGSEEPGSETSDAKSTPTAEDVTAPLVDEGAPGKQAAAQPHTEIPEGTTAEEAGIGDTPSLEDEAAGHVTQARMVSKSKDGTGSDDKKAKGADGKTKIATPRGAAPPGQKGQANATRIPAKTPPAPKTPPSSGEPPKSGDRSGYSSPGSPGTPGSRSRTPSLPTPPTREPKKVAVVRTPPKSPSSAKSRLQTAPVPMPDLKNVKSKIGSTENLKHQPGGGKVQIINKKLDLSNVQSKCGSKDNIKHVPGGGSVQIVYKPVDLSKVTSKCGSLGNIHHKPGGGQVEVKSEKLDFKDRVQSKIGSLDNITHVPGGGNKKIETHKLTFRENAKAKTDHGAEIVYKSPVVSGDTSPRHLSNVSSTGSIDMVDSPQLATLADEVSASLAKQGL
T1 sequence (P10636 other isoform, or with tags, fused parts or gaps limits assumed): as above
T2 sequence (P10636 other isoform, or with tags, fused parts or gaps limits assumed): as above
Sequence of K18 fragment of tau (P10636 561-689 limits assumed): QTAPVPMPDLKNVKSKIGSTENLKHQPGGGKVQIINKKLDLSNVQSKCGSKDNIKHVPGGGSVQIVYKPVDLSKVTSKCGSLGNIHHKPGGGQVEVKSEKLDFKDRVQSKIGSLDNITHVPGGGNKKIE

B1: DMR7 (antibody, mouse IgG1, V domains shown)
VH: QVQLQQPGAELVRPGASVKLSCKASGYIFTTYWMNWVKQRPGQGLEWIAMIDPSDSETHYNQMFKDKATLTVDTSSSTAYMQLSGLTSEDSAVYYCARGEGYWGQGTTLTVSS
VL: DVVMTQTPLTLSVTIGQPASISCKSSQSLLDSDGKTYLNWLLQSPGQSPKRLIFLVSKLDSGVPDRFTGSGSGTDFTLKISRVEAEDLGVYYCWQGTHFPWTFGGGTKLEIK
notes: Mouse hybridoma monoclonal antibody purified from culture medium; also called tau mAb DMR7; MHC2825
As for B1, the binding result with K18 fragment of tau and with ΔK18-P fragment of tau was “no binding (tested: 20 µg/mL)” in each case. Besides, the results for the EC50 in test [1], in test [2] and in test [3] were 0.1 nM, 0.46 nM and 12 nM, respectively.

B2: SKT82 (antibody, mouse IgG2a, V domains shown)
VH: EVQLQQSGAELVRSGASVKLSCTASGFNIKDYYMHWVKQRPEQGLEWIGWFDPENGDAEYAPKFQDKATMTADTSSNAAYLQLSSLTSEDTAVYYCNGYLYWGQGTLVTVSS
VL: DVLMTQTPLSLPVSLGDQASISCRSSQNIVHNNGNTYLEWYLQKPGQSPKLLIYKVSNRFSGVPDRFSGSGSGTDFTLKISRVEAEDLGIYYCFQGSHVPHTFGGGTRLEIK
notes: Mouse hybridoma monoclonal antibody purified from culture medium; also called tau mAb SKT82
For B2, the binding result with K18 fragment of tau and in the test with ΔK18-P fragment of tau was “no binding (tested: 20 µg/mL)” throughout. The half-maximal effective concentration (EC50) in test [1] worked out at 0.17 nM; in test [2], 2.38 nM; in test [3], 4.13 nM.

A word on the EC50: it is the concentration at which the effect is half-maximal.
